Results from paper PMC12717047 (Nature Communications, 2025).

Legend:
Test in all cases: flow cytometry on cells
[1] = target: KRAS^WT p7 peptide presented on HLA-A*11 (p7^WT/A*11) (Homo sapiens, HLA-A*11:01, strain, biotin on the AviTag (BirA co-expressed))
[2] = target: T1, KRAS^WT p7 peptide presented on HLA-A*03 (p7^WT/A*03) (Homo sapiens, HLA-A*03:01, strain, biotin on the AviTag (BirA co-expressed))
T1 chain 1: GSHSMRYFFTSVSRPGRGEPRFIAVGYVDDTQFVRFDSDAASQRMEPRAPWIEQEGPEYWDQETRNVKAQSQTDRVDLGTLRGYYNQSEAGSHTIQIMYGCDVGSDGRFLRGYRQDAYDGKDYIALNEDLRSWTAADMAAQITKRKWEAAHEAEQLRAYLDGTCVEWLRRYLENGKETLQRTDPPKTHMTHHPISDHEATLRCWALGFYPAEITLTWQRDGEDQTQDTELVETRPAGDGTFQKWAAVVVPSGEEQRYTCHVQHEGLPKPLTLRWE
T1 chain 2: not shown
T1 chain 3: VVVGAGGVGK

[3] = target: T2, KRAS^WT p5 peptide presented on HLA-A*02 (p5^WT/A*02) (Homo sapiens, HLA-A*02:01, strain, biotin on the AviTag (BirA co-expressed))
T2 chain 1: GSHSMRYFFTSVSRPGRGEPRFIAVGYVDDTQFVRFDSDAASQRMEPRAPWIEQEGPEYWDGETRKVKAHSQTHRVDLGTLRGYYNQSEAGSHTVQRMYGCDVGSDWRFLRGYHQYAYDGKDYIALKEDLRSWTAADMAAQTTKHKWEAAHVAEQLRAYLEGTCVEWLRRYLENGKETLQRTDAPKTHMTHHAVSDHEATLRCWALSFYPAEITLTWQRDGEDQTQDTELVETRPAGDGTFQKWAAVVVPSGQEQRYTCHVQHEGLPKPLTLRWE
T2 chain 2: not shown
T2 chain 3: KLVVVGAGGV

binding result [1]: no binding | binding result [2]: no binding | binding result [3]: no binding
B1: yeast-displayed scFv R302 (scFv, V domains shown)
VH: EVQLLESGGGVVQPGRSLRLSCAASGFTFSSYGMHWVRQAPGKGLEWVAVISYDGSNKYYADSVKGRFTISRDNSKNTLYLQMNSLRAEDTAVYYCLYGGNSYGMDVWGQGTMVTVFN
VL: DIVMTQSPATLSLSPGERATLSCRASQSLSSSFLAWYQQKPGQAPRLLIYGASSRATGIPDRFSGSGSGTDFTLTISRLEPEDFAVYYCQQSESALTFGGGTKVEIK
